Here are results for one molecule from PMC3602595 (2013).

The test deals with T1, HasR TonB box dodecamer peptide (Serratia marcescens).
T1 chain: ALDSLTVLGAGG
Briefly: ITC.

B1: TonBCTD CTD (protein)
chain: not shown
With B1, the Kd is around 50 µM.
